In patent US20260042817A1 (PROVIDENCE HEALTH AND SERVICES OREGON, published 2026):

Target: T1, recombinant TGFβ (Homo sapiens (Human), UniProt P01137 279-390, Active TGFβ is a disulfide-linked homodimer ('TGFβ exists as a dimer'). One protomer is given; the assay form is two identical copies.)
T1 construct: also called TGF-beta; transforming growth factor beta
Assay: solution incubation of TGFβ (500 pg/mL) with a range of Fc:TβRII concentrations, 20 min at room temperature; remaining unbound TGFβ read on an anti-TGFβ1 ELISA plate
Experimental: The Fc:TβRII recombinant protein (glycosylated) was tested in vitro using enzyme-linked immunosorbent assay (ELISA) to verify a selective and high binding affinity for TGFβ. A known quantity of recombinant TGFβ (500 pg/mL) was incubated with a range of concentrations of Fc:TβRII in aqueous solution at room temperature for 20 minutes. Aliquots from each sample were applied to an anti-TGFβ1 ELISA plate to measure the remaining unbound TGFβ.

T1 sequence (P01137 279-390 limits assumed, form in doubt): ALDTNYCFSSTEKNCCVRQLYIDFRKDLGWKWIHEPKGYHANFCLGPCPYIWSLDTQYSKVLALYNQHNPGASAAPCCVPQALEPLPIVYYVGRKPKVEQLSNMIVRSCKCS

B1: Fc:TβRII recombinant protein (glycosylated) (Fc fusion)
chain: TIPPHVQKSVNNDMIVTDNNGAVKFPQLCKFCDVRFSTCDNQKSCMSNCSITSICEKPQEVCVAVWRKNDENITLETVCHDPKLPYHDFILEDAASPKCIMKEKKKPGETFFMCSCSSDECNDNIIFSEEYNTSNPDLLLVIFQSSSTMVRSVECPPCPAPPVAGPSVFLFPPKPKDTLMISRTPEVTCVVVDVSHEDPEVQFNWYVDGMEVHNAKTKPREEQFNSTFRVVSVLTVVHQDWLNGKEYKCKVSNKGLPAPIEKTISKTKGQPREPQVYTLPPSREEMTKNQVSLTCLVKGFYPSDIAVEWESNGQPENNYKTTPPMLDSDGSFFLYSKLTVDKSRWQQGNVFSCSVMHEALHNHYTQKSLSLSPGK
modifications: N-glycosylated (expressed in HEK 293T cells); sites not stated
notes: Purified on Protein A from HEK 293T supernatant; also called Fc:TβRII protein; unconjugated Fc:TβRII protein
  IC50: 0.27 µg/mL
